Assay results from publication PMC3868940 (Nature methods, 2013).
Where two headings read alike, the source gives them in different places.

What was measured:
Assay in all cases: native MS
[1] = molecular target: sensory rhodopsin II (pSRII) from Natronomonas pharaonis, pSRII(1-241) (Natronomonas pharaonis) (UniProt P42196)
native MS [2] = molecular target: the molecule itself
native MS [3] = molecular target: the molecule itself; remark: listed apart in the source

Sequence of sensory rhodopsin II (pSRII) from Natronomonas pharaonis, pSRII(1-241) (P42196 whole entry): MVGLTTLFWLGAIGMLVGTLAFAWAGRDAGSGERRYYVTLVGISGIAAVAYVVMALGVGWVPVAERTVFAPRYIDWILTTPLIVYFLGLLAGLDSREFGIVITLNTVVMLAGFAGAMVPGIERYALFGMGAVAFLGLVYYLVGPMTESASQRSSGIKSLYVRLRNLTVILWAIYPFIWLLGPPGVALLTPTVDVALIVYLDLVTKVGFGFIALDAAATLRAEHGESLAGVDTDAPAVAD

Molecule | stoichiometry N [1] | stoichiometry N (native MS [2]) | stoichiometry N (native MS [3])
sensory rhodopsin II (pSRII) from Natronomonas pharaonis, pSRII(1-241) (from UniProt P42196 1-239) (receptor) | 2 |  | 
Diacylglycerol Kinase (DgkA) from E. coli (enzyme, E. coli K12, UniProt P0ABN1 2-122, looked up) ANNTTGFTRIIKAAGYSWKGLRAAWINEAAFRQEGVAVLLAVVIACWLDVDAITRVLLISSVMLVMIVEILNSAIEAVVDRIGSEYHELSGRAKDMGSAAVLIAIIVAVITWCILLWSHFG |  | 2 | 3
